The text below walks through data of patent US20130136736A1 (Ablynx, published 2013).

Substitutions are numbered along the chain they refer to. Where two headings read alike, the source gives them in different places.

The target of series [1] is T1, human von Willebrand Factor (vWF) (human, UniProt P04275 764-2813).
T1 construct: Multimeric plasma protein; The species of the vWF on the BIACORE chip and ELISA plates is not restated there; also called vWF (Red Cross); human vWF
The series is described as follows: ELISA on coated vWF: supernatant of a 200 µg/ml nanobody solution heated for 1 h at RT to 90 °C, dilution series, OD 405 nm. A general note: In an ELISA, binding on a coated surface is turned into a signal by an enzyme label.

For the next series, the target named is T2, pig vWF (pig, UniProt Q28833 438-2482).
T2 construct: Native vWF in plasma
The series is described as follows: sandwich ELISA: nanobody (10 µg/ml) captured on coated anti-myc, plasma from a 5-fold dilution in 2-fold steps, detection with polyclonal anti-vWF-HRP, OD 405 nm.

Series [2] deals with T1, human von Willebrand Factor (vWF). The series is described as follows: ELISA on coated vWF: supernatant of a 200 µg/ml nanobody solution heated for 1 h at RT to 90 °C, dilution series, OD 405 nm. This is another data set of the same source.

Experimental for pig vWF: A microtiterplate was coated with mouse anti-myc at 1/1000 overnight at 4° C. The plate was washed with PBS-Tween and blocked for two hours at room temperature with PBS-1% casein. After washing, the nanobodies were applied at a concentration of 10 μg/ml in PBS. After a one hour incubation period, the plates were washed and plasma (dog, pig, human, baboon and cynomologues monkey) was applied starting at a five-fold dilution and making further two-fold dilutions in PBS. The plates were incubated for 1 hour at room temperature. […] The plates were washed and ABTS/H₂O₂ substrate was applied. The OD 405 nm was measured.

B1: 12A2H1 (VHH)
VHH: EVQLVESGGGLVQPGGSLRLSCAASGRTFSYNPMGWFRQAPGKGRELVAAISRTGGSTYYPDSVEGRFTISRDNAKRMVYLQMNSLRAEDTAVYYCAAAGVRAEDGRVRTLPSEYTFWGQGTQVTVSS
notes: Humanised 12A2, monovalent
Turning to B1, the binding result in series [1] was “binds”.

B2: 12A2 (VHH)
VHH: B1 VHH with E1Q, Q3K, V5E, P14A, S17A, G44E, E46D, S85N, R87K, A88P
notes: 12B6 homologue, monovalent Nanobody
Take B2: in the series with pig vWF, the binding result is reported as “binds”.

B3: 12A2H4 (VHH)
VHH: B1 VHH with M78S
notes: Humanised 12A2, monovalent
As for B3, in series [2], the binding result is on record as “binds”.

B4: ADAMTS-13 (protein)
chain: AAGGILHLELLVAVGPDVFQAHQEDTERYVLTNLNIGAELLRDPSLGAQFRVHLVKMVILTEPEGAPNITANLTSSLLSVCGWSQTINPEDDTDPGHADLVLYITRFDLELPDGNRQVRGVTQLGGACSPTWSCLITEDTGFDLGVTIAHEIGHSFGLEHDGAPGSGCGPSGHVMASDGAAPRAGLAWSPCSRRQLLSLLSAGRARCVWDPPRPQPGSAGHPPDAQPGLYYSANEQCRVAFGPKAVACTFAREHLDMCQALSCHTDPLDQSSCSRLLVPLLDGTECGVEKWCSKGRCRSLVELTPIAAVHGRWSSWGPRSPCSRSCGGGVVTRRRQCNNPRPAFGGRACVGADLQAEMCNTQACEKTQLEFMSQQCARTDGQPLRSSPGGASFYHWGAAVPHSQGDALCRHMCRAIGESFIMKRGDSFLDGTRCMPSGPREDGTLSLCVSGSCRTFGCDGRMDSQQVWDRCQVCGGDNSTCSPRKGSFTAGRAREYVTFLTVTPNLTSVYIANHRPLFTHLAVRIGGRYVVAGKMSISPNTTYPSLLEDGRVEYRVALTEDRLPRLEEIRIWGPLQEDADIQVYRRYGEEYGNLTRPDITFTYFQPKPRQAWVWAAVRGPCSVSCGAGLRWVNYSCLDQARKELVETVQCQGSQQPPAWPEACVLEPCPPYWAVGDFGPCSASCGGGLRERPVRCVEAQGSLLKTLPPARCRAGAQQPAVALETCNPQPCPARWEVSEPSSCTSAGGAGLALENETCVPGADGLEAPVTEGPGSVDEKLPAPEPCVGMSCPPGWGHLDATSAGEKAPSPWGSIRTGAQAAHVWTPAAGSCSVSCGRGLMELRFLCMDSALRVPVQEELCGLASKPGSRREVCQAVPCPARWQYKLAACSVSCGRGVVRRILYCARAHGEDDGEEILLDTQCQGLPRPEPQEACSLEPCPPRWKVMSLGPCSASCGLGTARRSVACVQLDQGQDVEVDEAACAALVRPEASVPCLIADCTYRWHVGTWMECSVSCGDGIQRRRDTCLGPQAQAPVPADFCQHLPKPVTVRGCWAGPCVGQGTPSLVPHEEAAAPGRTTATPAGASLEWSQARGLLFSPAPQPRRLLPGPQENSVQSSACGRQHLEPTGTIDMRGPGQADCAVAIGRPLGEVVTLRVLESSLNCSAGDMLLLWGRLTWRKMCRKLLDMTFSSKTNTLVVRQRCGRPGGGVLLRYGSQLAPETFYRECDMQLFGPWGEIVSPSLSPATSNAGGCRLFINVAPHARIAIHALATNMGAGTEGANASYILIRDTHSLRTTAFHGQQVLYWESESSQAEMEFSEGFLKAQASLRGQYWTLQSWVPEMQDPQSWKGKEGT
Regarding B4, the “proteolytic cleavage of the A1-A2-A3 fragment by normal pool plasma (Western blot)” value with A1A2A3 construct, P04275 is “resulting in proteolytic cleavage of the fragment”.
